These results are taken from PMC6443190, “Regulation of anthocyanin accumulation via MYB75/HAT1/TPL-mediated transcriptional repression” (PLoS Genetics, 2019).

B3: MBP-MYB75 (natural protein, Arabidopsis thaliana, UniProt Q9FE25 1-248, looked up)
chain: MEGSSKGLRKGAWTTEEDSLLRQCINKYGEGKWHQVPVRAGLNRCRKSCRLRWLNYLKPSIKRGKLSSDEVDLLLRLHRLLGNRWSLIAGRLPGRTANDVKNYWNTHLSKKHEPCCKIKMKKRDITPIPTTPALKNNVYKPRPRSFTVNNDCNHLNAPPKVDVNPPCLGLNINNVCDNSIIYNKDKKKDQLVNNLIDGDNMWLEKFLEESQEVDILVPEATTTEKGDTLAFDVDQLWSLFDGETVKFD
notes: MYB75, Arabidopsis thaliana, At1g56650; full-length, in pMAL-C2X; pMAL-C2X; also called full-length MYB75

Conditions in all cases: both partners purified
The assay “MBP-MYB75” concerns the target B3. Description: pull-down; Ni-NTA beads with 5 ug HIS protein incubated with 5 ug MBP protein; 150 mM NaCl, 20 mM Tris, 0.2% Triton X-100, pH 8.0, 4 C, 2 h; anti-MBP blot.
Assay [1] addresses T1, HIS-HAT1 (Arabidopsis thaliana, UniProt P46600 1-282).
T1 construct: HAT1, Arabidopsis thaliana, At4g17460; full-length, in pET28a; pET28a; also called full-length HAT1
T1 sequence (looked up): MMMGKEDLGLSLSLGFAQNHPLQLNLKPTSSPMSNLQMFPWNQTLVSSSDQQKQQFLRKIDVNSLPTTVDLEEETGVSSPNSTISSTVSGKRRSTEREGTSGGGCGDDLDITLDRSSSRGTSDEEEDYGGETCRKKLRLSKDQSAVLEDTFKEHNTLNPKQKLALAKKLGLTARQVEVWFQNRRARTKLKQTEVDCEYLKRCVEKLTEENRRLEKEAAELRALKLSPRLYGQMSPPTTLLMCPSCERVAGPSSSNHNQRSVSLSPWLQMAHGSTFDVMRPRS
Description: pull-down; competitive HIS pull-down: 5 ug MBP-TT8 or MBP-EGL3 mixed with 5, 10 or 20 ug HIS-HAT1, on Ni-NTA beads with 5 ug HIS-MYB75; 150 mM NaCl, 20 mM Tris, 0.2% Triton X-100, pH 8.0, 4 C, 2 h; anti-MBP blot.

The target in another assay is T2, MBP-EGL3 (Arabidopsis thaliana, UniProt Q9CAD0 1-596).
T2 construct: EGL3, Arabidopsis thaliana, At1g63650; pMAL-C2X
T2 sequence (looked up): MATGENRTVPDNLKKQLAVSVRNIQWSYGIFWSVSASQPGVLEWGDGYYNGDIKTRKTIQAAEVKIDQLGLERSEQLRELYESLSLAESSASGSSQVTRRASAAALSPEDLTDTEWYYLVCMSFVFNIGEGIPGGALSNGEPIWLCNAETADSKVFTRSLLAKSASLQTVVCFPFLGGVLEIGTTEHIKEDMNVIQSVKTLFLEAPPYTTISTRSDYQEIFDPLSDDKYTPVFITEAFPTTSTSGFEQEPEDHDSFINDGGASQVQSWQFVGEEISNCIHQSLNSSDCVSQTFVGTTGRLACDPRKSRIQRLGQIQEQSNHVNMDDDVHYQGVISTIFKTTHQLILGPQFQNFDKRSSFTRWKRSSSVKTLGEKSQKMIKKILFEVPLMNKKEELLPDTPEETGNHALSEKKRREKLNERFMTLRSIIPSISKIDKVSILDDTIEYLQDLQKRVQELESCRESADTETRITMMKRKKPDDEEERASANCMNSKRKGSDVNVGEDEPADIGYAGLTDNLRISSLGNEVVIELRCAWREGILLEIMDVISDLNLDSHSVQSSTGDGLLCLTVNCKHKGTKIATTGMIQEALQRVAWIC
The description is as above.

The next assay concerns the target T3, MBP-TT8 (Arabidopsis thaliana, UniProt Q9FT81 1-518).
T3 construct: TT8, Arabidopsis thaliana, At4g09820; pMAL-C2X
T3 sequence (looked up): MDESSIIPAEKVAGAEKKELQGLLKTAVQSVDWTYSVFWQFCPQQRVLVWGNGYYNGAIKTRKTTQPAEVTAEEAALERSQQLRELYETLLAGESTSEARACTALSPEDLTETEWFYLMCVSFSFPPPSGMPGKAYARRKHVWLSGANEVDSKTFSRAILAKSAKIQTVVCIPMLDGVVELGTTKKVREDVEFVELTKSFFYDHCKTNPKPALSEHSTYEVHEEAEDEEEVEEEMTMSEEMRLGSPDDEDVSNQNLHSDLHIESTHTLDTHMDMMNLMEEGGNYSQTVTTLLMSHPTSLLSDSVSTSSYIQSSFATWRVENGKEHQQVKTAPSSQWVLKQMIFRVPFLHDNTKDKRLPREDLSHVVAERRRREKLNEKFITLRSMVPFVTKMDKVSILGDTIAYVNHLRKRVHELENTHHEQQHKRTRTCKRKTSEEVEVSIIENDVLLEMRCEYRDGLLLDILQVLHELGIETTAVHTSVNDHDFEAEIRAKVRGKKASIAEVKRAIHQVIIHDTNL
The description is as above.

The target of another assay is T4, MBP-HAT1 (Arabidopsis thaliana, UniProt P46600 1-282).
T4 construct: HAT1, Arabidopsis thaliana, At4g17460; full-length, in pMALc-B; pMALc-B; also called full-length HAT1
T4 sequence (looked up): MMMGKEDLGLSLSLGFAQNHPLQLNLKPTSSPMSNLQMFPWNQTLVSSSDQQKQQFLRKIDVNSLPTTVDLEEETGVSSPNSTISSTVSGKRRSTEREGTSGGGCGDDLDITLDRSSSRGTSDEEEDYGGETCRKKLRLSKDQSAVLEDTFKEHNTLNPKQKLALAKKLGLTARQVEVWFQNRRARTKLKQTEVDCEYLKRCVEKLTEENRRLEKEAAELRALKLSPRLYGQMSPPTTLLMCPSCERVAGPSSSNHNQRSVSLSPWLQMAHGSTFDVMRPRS
Description: pull-down; Ni-NTA beads with 5 ug HIS protein incubated with 5 ug MBP protein; 150 mM NaCl, 20 mM Tris, 0.2% Triton X-100, pH 8.0, 4 C, 2 h; anti-MBP blot.

Assay [2] deals with T1, HIS-HAT1. The assay is described as above.

B1: HAT1 C-terminal fragment (pull-down fragment) (domain or fragment, Arabidopsis thaliana, UniProt P46600 234-282, looked up)
chain: SPPTTLLMCPSCERVAGPSSSNHNQRSVSLSPWLQMAHGSTFDVMRPRS
notes: HAT1, Arabidopsis thaliana, At4g17460; also called C-terminus of HAT1; not shown: 6xHis (inferred from the set-up of the methods)
Turning to B1, in the assay with MBP-MYB75, the binding result is recorded as “binds”.

B2: HIS-MYB75 (natural protein, Arabidopsis thaliana, UniProt Q9FE25 1-248, looked up)
chain: MEGSSKGLRKGAWTTEEDSLLRQCINKYGEGKWHQVPVRAGLNRCRKSCRLRWLNYLKPSIKRGKLSSDEVDLLLRLHRLLGNRWSLIAGRLPGRTANDVKNYWNTHLSKKHEPCCKIKMKKRDITPIPTTPALKNNVYKPRPRSFTVNNDCNHLNAPPKVDVNPPCLGLNINNVCDNSIIYNKDKKKDQLVNNLIDGDNMWLEKFLEESQEVDILVPEATTTEKGDTLAFDVDQLWSLFDGETVKFD
notes: MYB75, Arabidopsis thaliana, At1g56650; full-length, in pET28a; pET28a; also called full-length MYB75
Take B2: the binding result in the assay with HIS-HAT1 [1], with MBP-EGL3, in the assay with MBP-TT8 and in the assay with MBP-HAT1 was “binds” each time.

As to B3, the binding result with HIS-HAT1 [2] is listed as “binds”.
